Series [1] concerns the target T1, MbpAgo WT (Mucilaginibacter paludis, UniProt H1YCU5 1-795).
T1 sequence: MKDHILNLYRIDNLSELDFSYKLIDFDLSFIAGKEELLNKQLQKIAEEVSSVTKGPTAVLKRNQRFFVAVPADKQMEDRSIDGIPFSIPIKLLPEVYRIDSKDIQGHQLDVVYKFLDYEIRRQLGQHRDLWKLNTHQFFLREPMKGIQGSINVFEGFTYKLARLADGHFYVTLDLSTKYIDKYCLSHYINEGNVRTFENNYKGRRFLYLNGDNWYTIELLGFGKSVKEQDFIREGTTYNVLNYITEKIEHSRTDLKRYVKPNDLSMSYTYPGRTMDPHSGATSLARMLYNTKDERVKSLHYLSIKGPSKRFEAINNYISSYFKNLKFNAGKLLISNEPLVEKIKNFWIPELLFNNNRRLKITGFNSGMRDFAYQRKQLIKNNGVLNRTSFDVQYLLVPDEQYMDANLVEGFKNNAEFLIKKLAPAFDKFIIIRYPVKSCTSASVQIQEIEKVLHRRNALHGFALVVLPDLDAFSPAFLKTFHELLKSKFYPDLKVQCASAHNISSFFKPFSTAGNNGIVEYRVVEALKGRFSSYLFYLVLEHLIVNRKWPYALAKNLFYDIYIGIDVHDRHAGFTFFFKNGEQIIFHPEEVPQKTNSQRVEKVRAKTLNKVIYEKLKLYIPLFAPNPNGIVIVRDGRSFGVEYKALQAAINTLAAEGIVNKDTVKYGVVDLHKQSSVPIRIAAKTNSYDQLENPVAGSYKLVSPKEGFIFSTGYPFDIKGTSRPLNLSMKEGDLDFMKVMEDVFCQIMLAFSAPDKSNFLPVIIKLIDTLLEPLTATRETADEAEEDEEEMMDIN
Briefly: EMSA. In general terms: In EMSA bound probe runs differently from free probe, usually more slowly.

For series [2], the target named is T1, MbpAgo WT. The experiment in a line: EMSA. The source holds these as a separate data set.

Where two headings read alike, the source gives them in different places.

The term Kd denotes the concentration at which binding is half-saturated. Read a high Kd as weaker binding.

B1: T-gDNA iFAM, 5'OH (ssDNA)
DNA: TGAGGTAGTAGGTTGT
Turning to B1, the equilibrium dissociation constant (Kd) stood at 162 ± 4.8 nM in series [1] and 148 ± 5.8 nM in series [2].

B2: T-gDNA iFAM, 5'P (ssDNA)
DNA: TGAGGTAGTAGGTTGT
modifications: 5' phosphate
B2: the Kd worked out at 205 ± 7.6 nM in series [1] and 111 ± 3 nM in series [2].

These data come from publication PMC9122594.
